In patent publication US20220195043A1:

Key:
[1] = target: human CD3ε-his (Cat #:10977-H08s, SinoBiological, China) (human) (UniProt P07766); assay: SPR (BIAcore 8K); human CD3ε-his coupled to CM5 chip, antibody injected
[2] = target: monkey CD20 (HEK293A/monkey CD20 cells) (monkey); assay: FACS on HEK293A/monkey CD20 (CynoCD20) cells, PE anti-human IgG secondary antibody, MFI
[3] = target: human CD3ε-his (Cat #:10977-H08s, SinoBiological, China) (human) (UniProt P07766); assay: ELISA: plate coated with human CD3ε-his (hCD3ε-his), antibody titrated, HRP goat anti-human IgG, OD450
[4] = target: monkey CD3 complex on cell surfaces (monkey PBMCs) (monkey); assay: FACS on monkey PBMCs (Cyno-PBMC), given by the filing as binding to monkey CD3; PE goat anti-human IgG, MFI

human CD3ε-his (Cat #:10977-H08s, SinoBiological, China) (human), sequence (P07766 23-126 limits assumed): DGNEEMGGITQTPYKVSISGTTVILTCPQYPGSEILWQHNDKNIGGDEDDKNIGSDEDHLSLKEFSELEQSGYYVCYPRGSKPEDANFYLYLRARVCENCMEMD
monkey CD20 (HEK293A/monkey CD20 cells) (monkey), sequence (P11836 other isoform, or with tags, fused parts or gaps): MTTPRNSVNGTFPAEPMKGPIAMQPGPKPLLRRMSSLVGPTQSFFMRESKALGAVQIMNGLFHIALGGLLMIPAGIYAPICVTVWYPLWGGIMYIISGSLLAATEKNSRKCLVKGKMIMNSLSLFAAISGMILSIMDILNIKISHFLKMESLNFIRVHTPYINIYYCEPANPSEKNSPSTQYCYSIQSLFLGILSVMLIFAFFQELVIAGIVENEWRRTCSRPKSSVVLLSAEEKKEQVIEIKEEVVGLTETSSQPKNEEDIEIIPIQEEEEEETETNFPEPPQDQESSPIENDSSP

Kd [1]: 5.6 nM
EC50 (read off the curve) [2]: 0.06 µg/mL
EC50 (read off the curve) [3]: 0.1 µg/mL
EC50 (read off the curve) [4]: 0.6 µg/mL
Substance: CD20-TCB (reference bispecific antibody against CD3 and CD20)
